This note sets out measurements from paper PMC10086252, “Tomato chlorosis virus CPm protein is a pathogenicity determinant and suppresses host local RNA silencing induced by single-stranded RNA”.

This series deals with CPm (minor coat protein) (Tomato chlorosis virus, UniProt A0A088FMK1 1-669). Kind of series: EMSA; […], room temperature 30 min; […]; binding buffer, […]. As to conditions: protein: recombinant; tags: His (pET28a); label: 5'-biotin; single strand. For orientation: In EMSA bound probe runs differently from free probe, usually more slowly.

B1: siRGFP-guide (single-stranded GFP RNA probe) (ssRNA)
RNA: UCAACAGGAUCGAGCUUAAGG
In the case of B1, the binding result was “no binding”.
